± gives the standard error. Variants at the floor of the assay were thinned out.
B1: glmS ribozyme (parent)
chain: AUAAAAGCGCCAGAACUACAGAAAUGUAGUUGACGAGGAGGAGGUUUAUCGAAUUUUCGGCGGAUGCCUCCAAA

Variants of: B1
Assay: self-cleavage kobs at 10000 uM GlcN6P; higher = faster cleavage; RNA array
Settings: with glucosamine-6-phosphate
In short: (§1)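 Glucosamine-6-phosphate, from 40 μM to 10 mM in HEPES/KCl/Mg(OAc)2 buffer, was flowed over sequenced MiSeq chips carrying barcoded ribozyme variants transcribed in situ by E. coli RNA polymerase. A hybridised Cy3 probe tracked the variants at 37 °C as tiles were imaged over ~14 h. kobs, kcat and KM were obtained by fitting normalised per-tile medians to exponential decays and then applying weighted Michaelis–Menten fits across concentrations.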

Variant | self-cleavage kobs at 10000 uM GlcN6P
A6U A36C C58G | < 1e-05 s⁻¹
G7A C10G C19A U47A G51A | < 1e-05 s⁻¹
C8A G29C U46A | < 1e-05 s⁻¹
G9A C11U U30C A52U G62U | < 1e-05 s⁻¹
C8U C34A A53C C71A | < 1e-05 s⁻¹
G9U A15U A42C U57G | < 1e-05 s⁻¹
C11G U31G G35U A36U U49C A52U | < 1e-05 s⁻¹
C8G G32U G43A C68G | < 1e-05 s⁻¹
A6G A14G A53C | 7.6e-05 ± 2.3e-05 s⁻¹
A6C A12C C58G | < 1e-05 s⁻¹
C11G U31C A36C | < 1e-05 s⁻¹
C8A A15U U47C U69A | < 1e-05 s⁻¹
G9U G32U G37U | < 1e-05 s⁻¹
C11A A33C A42C C50G | < 1e-05 s⁻¹
A6U G7U G13U U31C | < 1e-05 s⁻¹
C8A A39G G41U G66U C67G | < 1e-05 s⁻¹
C11G U30A U57G | < 1e-05 s⁻¹
G9U G32C C34G U54G A64U C71A | < 1e-05 s⁻¹
A12C G13U C61U G62U | < 1e-05 s⁻¹
C8A G41U U46G G63A | < 1e-05 s⁻¹
U46G G51U C67A | < 1e-05 s⁻¹
C11U A42C U55C C70U | < 1e-05 s⁻¹
C8G G40C G59C C67G C71U | < 1e-05 s⁻¹
C10A G13U G44A | < 1e-05 s⁻¹
C10U U49G C61U | < 1e-05 s⁻¹
C11U A39G C58G | 7.12e-05 ± 1.7e-05 s⁻¹

Variant | self-cleavage kobs at 10000 uM GlcN6P
C8A G29U A52U U55A C71G | < 1e-05 s⁻¹
C11A U30C A39G | 0.000114 ± 2.3e-05 s⁻¹
A6G A33C A64G | < 1e-05 s⁻¹
G7C U55G U56C U69A | < 1e-05 s⁻¹
C10G C16G A53G C68U | < 1e-05 s⁻¹
G7U U47A U57G | < 1e-05 s⁻¹
U47C C67G C70U | 8.24e-05 ± 1.8e-05 s⁻¹
U47G A48U U56G C68A | 4.62e-05 ± 1.6e-05 s⁻¹
C8G U45G U55C C71A | < 1e-05 s⁻¹
C10G G13A G41C C50U C67A | < 1e-05 s⁻¹
C11U A53G G60A | < 1e-05 s⁻¹
G7A U31C C50U U65G | < 1e-05 s⁻¹
G44U U46A | 0.000117 ± 2.9e-05 s⁻¹
C8G G9C G13U G37U A64G | < 1e-05 s⁻¹
G7A A14G A39G C71U | 5.55e-05 ± 1.7e-05 s⁻¹
G7C A39C C61A C67A | < 1e-05 s⁻¹
C8G A33U U56A | < 1e-05 s⁻¹
A6G C8U U30A G40C A64C U65A | < 1e-05 s⁻¹
C11U G38C C50A A53G G60C C68U | < 1e-05 s⁻¹
G7A U55A G66A C67U U69G | 0.000476 ± 0.00013 s⁻¹
C10A G32A G60C G63A | < 1e-05 s⁻¹
A12C C61U G66U | < 1e-05 s⁻¹
A6U C10G G62U C67G C71G | 2.87e-05 ± 1.4e-05 s⁻¹
C8G A14G A33U | < 1e-05 s⁻¹
C11A A12C U57G C67G | 3.81e-05 ± 1.5e-05 s⁻¹

Variants of: B1
Assay: self-cleavage kobs at 2500 uM GlcN6P; higher = faster cleavage; RNA array
Settings: with glucosamine-6-phosphate
In short: as §1

Variant | self-cleavage kobs at 2500 uM GlcN6P
G41U C50U G51U | < 1e-05 s⁻¹
C50A U65G C67A | 8.64e-05 ± 2.2e-05 s⁻¹
U47A C50A G59U G66C | < 1e-05 s⁻¹
U45G U57G C68A C70A | < 1e-05 s⁻¹
A53U U56A C68U | 0.000647 ± 0.00019 s⁻¹
G43A U46C A53G | < 1e-05 s⁻¹
G44A G66U C67G | 0.00142 ± 0.00035 s⁻¹
A52C A53G U57G C70G | 5.76e-05 ± 2.3e-05 s⁻¹
U57A C58A C70G | 0.000143 ± 3.9e-05 s⁻¹
A53U U54C U55A A64G | 0.00369 ± 0.00074 s⁻¹
U57A G59U G66U | < 1e-05 s⁻¹
U46G G59C C68U C70A | < 1e-05 s⁻¹
G41A U49C U57A G59U C68G | < 1e-05 s⁻¹
U45G G60A C67G C68U | < 1e-05 s⁻¹
U45G U56A C71U | 0.000974 ± 0.00025 s⁻¹
G44U U46G C70U C71G | < 1e-05 s⁻¹
U56C C67A C71G | < 1e-05 s⁻¹
G41C A52C U55G G60C C68U | < 1e-05 s⁻¹

Variant | self-cleavage kobs at 2500 uM GlcN6P
U46G U54C C58G U65A | < 1e-05 s⁻¹
G43A C50G U69G | < 1e-05 s⁻¹
U47A A53G C70A | 0.000177 ± 4e-05 s⁻¹
U46G G51U C67A | < 1e-05 s⁻¹
A42G A48U U56A | 0.000146 ± 4.2e-05 s⁻¹
G41U U47C G51U | < 1e-05 s⁻¹
U56C A64U U65C | < 1e-05 s⁻¹
U47C C67G C70U | 0.000129 ± 4.1e-05 s⁻¹
U47G A48U U56G C68A | 0.000324 ± 0.00012 s⁻¹
G41U U56C C70G | 0.00166 ± 0.00032 s⁻¹
G44U U46A | 0.000112 ± 3.8e-05 s⁻¹
G41C G59U C67U | < 1e-05 s⁻¹
G44C A53U U54G | 7.38e-05 ± 2e-05 s⁻¹
G41U A53U U56G | 0.00031 ± 9.3e-05 s⁻¹
U46G C61A C70G | < 1e-05 s⁻¹
A42U A53G C61A C67G | < 1e-05 s⁻¹
A48U U56A | 9.99e-05 ± 3.4e-05 s⁻¹

From the supplement of paper PMC7125110
